Laboratory results from publication PMC7567103 (Nature Communications, 2020).
Changes are numbered by the printed parent chain. Where no end group is shown, it is not given here.

Legend:
[1] = target: GHRHR(23-423) (WT) (human) (UniProt Q02643)
[2] = target: HA-Flag-GHRHR C195A (human) (UniProt Q02643)
[3] = target: HA-Flag-GHRHR F187A (human) (UniProt Q02643)
[4] = target: HA-Flag-GHRHR H210A (human) (UniProt Q02643)
[5] = target: HA-Flag-GHRHR K182A (human) (UniProt Q02643)
[6] = target: HA-Flag-GHRHR N346A (human) (UniProt Q02643)
[7] = target: HA-Flag-GHRHR R357A (human) (UniProt Q02643)
[8] = target: HA-Flag-GHRHR T213A (human) (UniProt Q02643)
[9] = target: HA-Flag-GHRHR W282A (human) (UniProt Q02643)
GHRHR(23-423) (human) = GHRHR(23-423) (human) (UniProt Q02643)
GHRHR WT = assay: cAMP accumulation, GHRH vs GHRH(D3A) (Supplementary Fig. 6c); assay type: cell-based, human; conditions: D3A in GHRH; WT receptor
Protocol: GHRH-stimulated cAMP accumulation was measured by a LANCE Ultra cAMP kit (PerkinElmer). Briefly, 24 h after transfection with GHRHR(23-423), GHRHR(23-405), GHRHR(23-405)-LgBiT-2MBP, or HA-Flag-GHRHR (WT and mutants), HEK 293 T cells (3000/well in 384-well white plates, PerkinElmer) were digested by 0.2% (w/v) EDTA and 5 μL stimulation buffer (HBSS supplemented with 5 mM HEPES, 0.5 mM IBMX, and 0.1% (w/v) BSA, pH 7.4). Different concentrations (5 μL) of GHRH were then added and the stimulation lasted for 30 min at RT. The reaction was stopped by adding 5 μL Eu-cAMP tracer and 5 μL ULight-anti-cAMP. After 1 h RT incubation, TR-FRET signals (excitation: 320 nm, emission: 615 and 665 nm) were measured by an EnVision (PerkinElmer).

HA-Flag-GHRHR K182A = target: T1, HA-Flag-GHRHR K182A (human, UniProt Q02643 23-423, K182^2.67bA); assay: cell-based or functional assay
T1 sequence (looked up): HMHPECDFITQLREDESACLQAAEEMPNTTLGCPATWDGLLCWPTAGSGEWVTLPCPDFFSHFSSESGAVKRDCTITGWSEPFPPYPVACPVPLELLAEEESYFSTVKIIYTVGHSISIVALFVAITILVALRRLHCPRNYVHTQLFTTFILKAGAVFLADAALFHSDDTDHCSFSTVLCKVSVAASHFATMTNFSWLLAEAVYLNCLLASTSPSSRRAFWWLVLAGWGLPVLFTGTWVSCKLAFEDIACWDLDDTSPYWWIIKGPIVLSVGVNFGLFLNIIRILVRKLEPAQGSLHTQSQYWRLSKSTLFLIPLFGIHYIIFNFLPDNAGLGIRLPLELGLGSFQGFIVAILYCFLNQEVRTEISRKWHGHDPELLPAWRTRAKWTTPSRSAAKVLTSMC

HA-Flag-GHRHR F187A = target: T2, HA-Flag-GHRHR F187A (human, UniProt Q02643 23-423, F187^ECL1A); assay: cell-based or functional assay
T2 sequence (looked up): T1 sequence (looked up) with A160K, F165A

HA-Flag-GHRHR C195A = target: T3, HA-Flag-GHRHR C195A (human, UniProt Q02643 23-423, C195^ECL1A); assay: cell-based or functional assay
T3 sequence (looked up): T1 sequence (looked up) with A160K, C173A

HA-Flag-GHRHR R357C = target: T4, HA-Flag-GHRHR R357C (human, UniProt Q02643 23-423, R357C); assay: cell-based or functional assay
T4 sequence (looked up): T1 sequence (looked up) with A160K, R335C

growth hormone-releasing hormone (GHRH) (from UniProt P01286 32-75) (peptide)
Supplementary Table 4, Wild-type: pEC50 of GHRH-induced cAMP accumulation, HEK 293T cells [1]: 9.74 -log M | Supplementary Table 4, C195A: pEC50 of GHRH-induced cAMP accumulation, HEK 293T cells [2]: 7.67 -log M | Supplementary Table 4, F187A: pEC50 of GHRH-induced cAMP accumulation, HEK 293T cells [3]: 8.94 -log M | Supplementary Table 4, H210A: pEC50 of GHRH-induced cAMP accumulation, HEK 293T cells [4]: 9 -log M | Supplementary Table 4, K182A: pEC50 of GHRH-induced cAMP accumulation, HEK 293T cells [5]: 7.4 -log M | Supplementary Table 4, N346A: pEC50 of GHRH-induced cAMP accumulation, HEK 293T cells [6]: 8.85 -log M | Supplementary Table 4, R357A: pEC50 of GHRH-induced cAMP accumulation, HEK 293T cells [7]: 6.87 -log M | Supplementary Table 4, T213A: pEC50 of GHRH-induced cAMP accumulation, HEK 293T cells [8]: 9.35 -log M | Supplementary Table 4, W282A: pEC50 of GHRH-induced cAMP accumulation, HEK 293T cells [9]: 7.88 -log M

GHRH D^3PA (peptide)
cAMP accumulation in HEK 293 T cells: fold loss of potency (GHRHR(23-423) (human)): 4 fold

GHRH(D3A): GHRH with Asp3 replaced by Ala (YAAAIFTNSYRKVLGQLSARKLLQDIMSRQQGESNQERGARARL; ends and bridges not checked; UniProt P01286 32-75, looked up, variant D3A)
diminished potency vs GHRH (GHRHR WT): ~ 4 fold

YADAIFTNSYRKVLGQLSARKLLQDIMSRQQGESNQERGARARL (peptide, UniProt P01286 32-75, looked up) [Growth hormone-releasing hormone (GHRH)]
cAMP accumulation in HEK 293 T cells: fold loss of GHRH potency (HA-Flag-GHRHR K182A): ~200 fold | cAMP accumulation in HEK 293 T cells: fold loss of GHRH potency (HA-Flag-GHRHR F187A): ~5 fold | cAMP accumulation in HEK 293 T cells: fold loss of GHRH potency (HA-Flag-GHRHR C195A): ~100 fold | cAMP accumulation in HEK 293 T cells: fold loss of GHRH potency (HA-Flag-GHRHR R357C): 1000 fold
